In article PMC2603183:

What was measured:
[1] = target: CHIR-AB1 extracellular domain (chicken); assay: SPR
chicken IgY (chicken) = assay: SPR
[2] = target: CHIR-AB1 extracellular domain (chicken); assay: AUC
[3] = target: FcY (CH3-CH4 domains of chicken IgY) (chicken); assay: SEC

| Kd [1] | microscopic KD, binding of the first CHIR-AB1 to IgY (bivalent analyte model) [1] | microscopic KD, binding of the second CHIR-AB1 to IgY (bivalent analyte model) [1] | Kd (chicken IgY (chicken)) | stoichiometry N [2] | stoichiometry N [3] | Substance |
| --- | --- | --- | --- | --- | --- | --- |
| 17 nM | 403 nM | 3900 nM | – | – | – | chicken IgY (natural protein) |
| – | – | – | 800 nM | 2 | 1.83 | CHIR-AB1 extracellular domain (receptor) |
